Test results from US20140087995A1 (published 2014).
Numbered stars: 1 amine (or outer) side, 2 acyl side, 3 side chain; on linkers, the order of the positions; unused ones are H or OH. Bridge positions count the residues as written; N and C are the ends. Side chains are listed from the residue outwards. Ends that are not written are not given here. * marks the point of attachment. C20 diacid = O=C(O)CCCCCCCCCCCCCCCCCCC(=O)*; γGlu = O=C(O)[C@H](CCC(=O)[*:2])N[*:1]

T1: human calcitonin receptor (human, UniProt P30988 25-474)
T1 sequence (looked up): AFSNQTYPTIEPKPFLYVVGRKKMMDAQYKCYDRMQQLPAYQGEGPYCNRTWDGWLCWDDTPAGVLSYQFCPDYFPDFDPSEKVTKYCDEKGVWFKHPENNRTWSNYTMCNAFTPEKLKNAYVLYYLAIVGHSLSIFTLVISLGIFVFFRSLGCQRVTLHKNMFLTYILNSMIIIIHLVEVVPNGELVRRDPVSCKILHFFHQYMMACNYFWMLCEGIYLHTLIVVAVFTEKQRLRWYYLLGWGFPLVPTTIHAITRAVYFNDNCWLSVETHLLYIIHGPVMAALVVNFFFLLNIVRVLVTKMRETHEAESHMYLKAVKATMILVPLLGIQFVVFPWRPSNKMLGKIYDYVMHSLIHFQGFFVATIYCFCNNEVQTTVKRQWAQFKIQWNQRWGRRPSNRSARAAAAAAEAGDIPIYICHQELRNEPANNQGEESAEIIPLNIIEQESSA


These binders were tested against T1, human calcitonin receptor (assay: cell-based or functional assay).

Binder | hCTR funct. EC50
K([γGlu-C20 diacid])CNTATCATQRLANFLRHSSPNFGAIPSSTNVGSHTY-NH2 (disulfide 2-7; N-terminus assumed; SMILES CC[C@H](C)[C@H](NC(=O)[C@H](C)NC(=O)CNC(=O)[C@H](Cc1ccccc1)NC(=O)[C@H](CC(N)=O)NC(=O)[C@@H]1CCCN1C(=O)[C@H](CO)NC(=O)[C@H](CO)NC(=O)[C@H](Cc1c[nH]cn1)NC(=O)[C@H](CCCNC(=N)N)NC(=O)[C@H](CC(C)C)NC(=O)[C@H](Cc1ccccc1)NC(=O)[C@H](CC(N)=O)NC(=O)[C@H](C)NC(=O)[C@H](CC(C)C)NC(=O)[C@H](CCCNC(=N)N)NC(=O)[C@H](CCC(N)=O)NC(=O)[C@@H](NC(=O)[C@H](C)NC(=O)[C@@H]1CSSC[C@H](NC(=O)[C@@H](N)CCCCNC(=O)CC[C@H](NC(=O)CCCCCCCCCCCCCCCCCCC(=O)O)C(=O)O)C(=O)N[C@@H](CC(N)=O)C(=O)N[C@@H]([C@@H](C)O)C(=O)N[C@@H](C)C(=O)N[C@@H]([C@@H](C)O)C(=O)N1)[C@@H](C)O)C(=O)N1CCC[C@H]1C(=O)N[C@@H](CO)C(=O)N[C@@H](CO)C(=O)N[C@H](C(=O)N[C@@H](CC(N)=O)C(=O)N[C@H](C(=O)NCC(=O)N[C@@H](CO)C(=O)N[C@@H](Cc1c[nH]cn1)C(=O)N[C@H](C(=O)N[C@@H](Cc1ccc(O)cc1)C(N)=O)[C@@H](C)O)C(C)C)[C@@H](C)O, analogue of human amylin; also called compound 60) [N^ε1-[(4S)-4-carboxy-4-(19-carboxynonadecanoylamino)butanoyl]-[Arg17,Pro21,Pro27,His35]-h-amylin] | 5.36 nM
K([γGlu-C20 diacid])CNTATCATQRLANFLRHSSPNFGAIPSSTNVGSKTY-NH2 (disulfide 2-7; N-terminus assumed; SMILES CC[C@H](C)[C@H](NC(=O)[C@H](C)NC(=O)CNC(=O)[C@H](Cc1ccccc1)NC(=O)[C@H](CC(N)=O)NC(=O)[C@@H]1CCCN1C(=O)[C@H](CO)NC(=O)[C@H](CO)NC(=O)[C@H](Cc1c[nH]cn1)NC(=O)[C@H](CCCNC(=N)N)NC(=O)[C@H](CC(C)C)NC(=O)[C@H](Cc1ccccc1)NC(=O)[C@H](CC(N)=O)NC(=O)[C@H](C)NC(=O)[C@H](CC(C)C)NC(=O)[C@H](CCCNC(=N)N)NC(=O)[C@H](CCC(N)=O)NC(=O)[C@@H](NC(=O)[C@H](C)NC(=O)[C@@H]1CSSC[C@H](NC(=O)[C@@H](N)CCCCNC(=O)CC[C@H](NC(=O)CCCCCCCCCCCCCCCCCCC(=O)O)C(=O)O)C(=O)N[C@@H](CC(N)=O)C(=O)N[C@@H]([C@@H](C)O)C(=O)N[C@@H](C)C(=O)N[C@@H]([C@@H](C)O)C(=O)N1)[C@@H](C)O)C(=O)N1CCC[C@H]1C(=O)N[C@@H](CO)C(=O)N[C@@H](CO)C(=O)N[C@H](C(=O)N[C@@H](CC(N)=O)C(=O)N[C@H](C(=O)NCC(=O)N[C@@H](CO)C(=O)N[C@@H](CCCCN)C(=O)N[C@H](C(=O)N[C@@H](Cc1ccc(O)cc1)C(N)=O)[C@@H](C)O)C(C)C)[C@@H](C)O, analogue of human amylin; also called compound 35) [N^ε1-[(4S)-4-carboxy-4-(19-carboxynonadecanoylamino)butanoyl]-[Arg17,Pro21,Pro27,Lys35]-h-amylin] | 5.46 nM
K([γGlu-C20 diacid])CNTATCATQRLAHFLRHSSPNFGAIPSSTPVGSNTY-NH2 (disulfide 2-7; N-terminus assumed; SMILES CC[C@H](C)[C@H](NC(=O)[C@H](C)NC(=O)CNC(=O)[C@H](Cc1ccccc1)NC(=O)[C@H](CC(N)=O)NC(=O)[C@@H]1CCCN1C(=O)[C@H](CO)NC(=O)[C@H](CO)NC(=O)[C@H](Cc1c[nH]cn1)NC(=O)[C@H](CCCNC(=N)N)NC(=O)[C@H](CC(C)C)NC(=O)[C@H](Cc1ccccc1)NC(=O)[C@H](Cc1c[nH]cn1)NC(=O)[C@H](C)NC(=O)[C@H](CC(C)C)NC(=O)[C@H](CCCNC(=N)N)NC(=O)[C@H](CCC(N)=O)NC(=O)[C@@H](NC(=O)[C@H](C)NC(=O)[C@@H]1CSSC[C@H](NC(=O)[C@@H](N)CCCCNC(=O)CC[C@H](NC(=O)CCCCCCCCCCCCCCCCCCC(=O)O)C(=O)O)C(=O)N[C@@H](CC(N)=O)C(=O)N[C@@H]([C@@H](C)O)C(=O)N[C@@H](C)C(=O)N[C@@H]([C@@H](C)O)C(=O)N1)[C@@H](C)O)C(=O)N1CCC[C@H]1C(=O)N[C@@H](CO)C(=O)N[C@@H](CO)C(=O)N[C@H](C(=O)N1CCC[C@H]1C(=O)N[C@H](C(=O)NCC(=O)N[C@@H](CO)C(=O)N[C@@H](CC(N)=O)C(=O)N[C@H](C(=O)N[C@@H](Cc1ccc(O)cc1)C(N)=O)[C@@H](C)O)C(C)C)[C@@H](C)O, analogue of human amylin; also called compound 62) | 0.539 nM
K([γGlu-C20 diacid])CNTATCATQRLAHFLRHSSPNFGAIPSSTNVGSNTY-NH2 (disulfide 2-7; N-terminus assumed; SMILES CC[C@H](C)[C@H](NC(=O)[C@H](C)NC(=O)CNC(=O)[C@H](Cc1ccccc1)NC(=O)[C@H](CC(N)=O)NC(=O)[C@@H]1CCCN1C(=O)[C@H](CO)NC(=O)[C@H](CO)NC(=O)[C@H](Cc1c[nH]cn1)NC(=O)[C@H](CCCNC(=N)N)NC(=O)[C@H](CC(C)C)NC(=O)[C@H](Cc1ccccc1)NC(=O)[C@H](Cc1c[nH]cn1)NC(=O)[C@H](C)NC(=O)[C@H](CC(C)C)NC(=O)[C@H](CCCNC(=N)N)NC(=O)[C@H](CCC(N)=O)NC(=O)[C@@H](NC(=O)[C@H](C)NC(=O)[C@@H]1CSSC[C@H](NC(=O)[C@@H](N)CCCCNC(=O)CC[C@H](NC(=O)CCCCCCCCCCCCCCCCCCC(=O)O)C(=O)O)C(=O)N[C@@H](CC(N)=O)C(=O)N[C@@H]([C@@H](C)O)C(=O)N[C@@H](C)C(=O)N[C@@H]([C@@H](C)O)C(=O)N1)[C@@H](C)O)C(=O)N1CCC[C@H]1C(=O)N[C@@H](CO)C(=O)N[C@@H](CO)C(=O)N[C@H](C(=O)N[C@@H](CC(N)=O)C(=O)N[C@H](C(=O)NCC(=O)N[C@@H](CO)C(=O)N[C@@H](CC(N)=O)C(=O)N[C@H](C(=O)N[C@@H](Cc1ccc(O)cc1)C(N)=O)[C@@H](C)O)C(C)C)[C@@H](C)O, analogue of human amylin; also called compound 70) [N^ε1-[(4S)-4-carboxy-4-(19-carboxynonadecanoylamino)butanoyl]-[His14,Arg17,Pro21,Pro27]-h-amylin] | 0.715 nM
K([γGlu-C20 diacid])CNTATCATQRLAHFLRHSSPNFGAIPSSTNVGSHTY-NH2 (disulfide 2-7; N-terminus assumed; SMILES CC[C@H](C)[C@H](NC(=O)[C@H](C)NC(=O)CNC(=O)[C@H](Cc1ccccc1)NC(=O)[C@H](CC(N)=O)NC(=O)[C@@H]1CCCN1C(=O)[C@H](CO)NC(=O)[C@H](CO)NC(=O)[C@H](Cc1c[nH]cn1)NC(=O)[C@H](CCCNC(=N)N)NC(=O)[C@H](CC(C)C)NC(=O)[C@H](Cc1ccccc1)NC(=O)[C@H](Cc1c[nH]cn1)NC(=O)[C@H](C)NC(=O)[C@H](CC(C)C)NC(=O)[C@H](CCCNC(=N)N)NC(=O)[C@H](CCC(N)=O)NC(=O)[C@@H](NC(=O)[C@H](C)NC(=O)[C@@H]1CSSC[C@H](NC(=O)[C@@H](N)CCCCNC(=O)CC[C@H](NC(=O)CCCCCCCCCCCCCCCCCCC(=O)O)C(=O)O)C(=O)N[C@@H](CC(N)=O)C(=O)N[C@@H]([C@@H](C)O)C(=O)N[C@@H](C)C(=O)N[C@@H]([C@@H](C)O)C(=O)N1)[C@@H](C)O)C(=O)N1CCC[C@H]1C(=O)N[C@@H](CO)C(=O)N[C@@H](CO)C(=O)N[C@H](C(=O)N[C@@H](CC(N)=O)C(=O)N[C@H](C(=O)NCC(=O)N[C@@H](CO)C(=O)N[C@@H](Cc1c[nH]cn1)C(=O)N[C@H](C(=O)N[C@@H](Cc1ccc(O)cc1)C(N)=O)[C@@H](C)O)C(C)C)[C@@H](C)O, analogue of human amylin; also called compound 66) | 0.542 nM
K([γGlu-C20 diacid])CNTATCATQRLAEFLRHSSPNFGAIPSSTNVGSRTY-NH2 (disulfide 2-7; N-terminus assumed; SMILES CC[C@H](C)[C@H](NC(=O)[C@H](C)NC(=O)CNC(=O)[C@H](Cc1ccccc1)NC(=O)[C@H](CC(N)=O)NC(=O)[C@@H]1CCCN1C(=O)[C@H](CO)NC(=O)[C@H](CO)NC(=O)[C@H](Cc1c[nH]cn1)NC(=O)[C@H](CCCNC(=N)N)NC(=O)[C@H](CC(C)C)NC(=O)[C@H](Cc1ccccc1)NC(=O)[C@H](CCC(=O)O)NC(=O)[C@H](C)NC(=O)[C@H](CC(C)C)NC(=O)[C@H](CCCNC(=N)N)NC(=O)[C@H](CCC(N)=O)NC(=O)[C@@H](NC(=O)[C@H](C)NC(=O)[C@@H]1CSSC[C@H](NC(=O)[C@@H](N)CCCCNC(=O)CC[C@H](NC(=O)CCCCCCCCCCCCCCCCCCC(=O)O)C(=O)O)C(=O)N[C@@H](CC(N)=O)C(=O)N[C@@H]([C@@H](C)O)C(=O)N[C@@H](C)C(=O)N[C@@H]([C@@H](C)O)C(=O)N1)[C@@H](C)O)C(=O)N1CCC[C@H]1C(=O)N[C@@H](CO)C(=O)N[C@@H](CO)C(=O)N[C@H](C(=O)N[C@@H](CC(N)=O)C(=O)N[C@H](C(=O)NCC(=O)N[C@@H](CO)C(=O)N[C@@H](CCCNC(=N)N)C(=O)N[C@H](C(=O)N[C@@H](Cc1ccc(O)cc1)C(N)=O)[C@@H](C)O)C(C)C)[C@@H](C)O, analogue of human amylin; also called compound 51) | 5.22 nM
